Test results taken from article PMC7501309, “Structure and mechanism of a dehydratase/decarboxylase enzyme couple involved in polyketide β-methyl branch incorporation” (Scientific Reports, 2020).

B1: PksI, bacillaene synthase decarboxylase (wild type) (enzyme, Bacillus subtilis 168)
chain: MTHSVVELIEIESAIIQVKMQDRTHKNAFSQELTDDLIQAFEYIRQNPKYKAVILTGYDNYFASGGTQEGLLRIQQGLTKFTDDNLYSLALDCEIPVIAAMQGHGIGGGFVMGLFADIVILSRESVYTANFMKYGFTPGMGATFIVPKKLGFSLAQEILLNAGSYRGADLEKRGVPFKVLPRAEVLDYAVELAQELAEKPRNSLVTLKDHLVAPLRDQLPRVIEQELMMHEKTFHHEEVKSRIKGLYGN
notes: PksI of Bacillus subtilis 168, amplified from genomic DNA and cloned into pOPINF; the crystal models hold residues 1-249; The His tag is 3C protease cleavable (pOPINF); also called WT PksI; source: E. coli BL21(DE3), purified (HisTrap, Superdex 200 SEC)
B2: PksH, bacillaene synthase dehydratase (wild type) (enzyme, Bacillus subtilis 168, UniProt P40805 1-259, looked up)
chain: MDLVTYQTIKVRFQASVCYITFHRPEANNTINDTLIEECLQVLNQCETSTVTVVVLEGLPEVFCFGADFQEIYQEMKRGRKQASSQEPLYDLWMKLQTGPYVTISHVRGKVNAGGLGFVSATDIAIADQTASFSLSELLFGLYPACVLPFLIRRIGRQKAHYMTLMTKPISVQEASEWGLIDAFDAESDVLLRKHLLRLRRLNKKGIAHYKQFMSSLDHQVSRAKATALTANQDMFSDPQNQMGIIRYVETGQFPWEDQ
notes: PksH of Bacillus subtilis 168, amplified from genomic DNA and cloned into pET28a (NdeI/XhoI); The His tag is thrombin cleavable (pET28a); also called WT PksH; source: E. coli BL21(DE3), purified (HisTrap, Superdex 200 SEC)

Target: the molecule itself
Experiment: SEC; analytical Superdex 200 10/60; 100 µl at 0.5 mg/ml; 50 mM Tris-HCl, 150 mM NaCl, 5% glycerol, pH 7.5 (legend: 20 mM Tris-HCl, 150 mM NaCl, pH 7.5); elution compared with standards

Protein	stoichiometry N
B1	3
B2	3
